Target: DP10.7 TCR (Vγ4Vδ1), soluble recombinant γδ TCR (human)
Assay: SPR

KD without sulfatide (CD1d loaded with 24:1 βGalCer): > 100 µM
Substance: soluble, recombinant human CD1d (heterodimer with β2-microglobulin) (from UniProt P15813 20-301; P61769 21-119) (complex)

Source: article PMC3875342
